± gives the standard deviation.

This series can be described thus: protein stability index of a GFP-peptide fusion (GPS, HEK-293T) (PSI 1-6); higher = more stable. The settings on record: c terminus: a fixed tail appended.
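Also: 24-mer peptide tiles fused after GFP, lentivirally expressed, FACS-sorted into six equal bins by GFP/DsRed ratio, decoded by Illumina sequencing, PSI is the read-weighted mean bin number.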

On to GADREFIEARRRALKRFVNLVARH [SNX8], for which the protein stability index reads like this: (treatment: DMSO) 2.45 ± 0.15; (treatment: MLN4924 1 uM, 8 h) 2.64 ± 0.25.
In the same order, the values of LLRSPPPPSARHRAHPPQRPASSG [KCNA3] are 4.42 ± 0.18 and 4.62 ± 0.33.
As to APVTFRHHRYDDLVRTLYKVQNEC [CPN1], the protein stability index (treatment: DMSO) was found to be 2.62 ± 0.065 and the protein stability index (treatment: MLN4924 1 uM, 8 h) stood at 2.83 ± 0.12.
Consider WCDGCKNHIGMGVRYNAEKKKVGN [YJU2B], for which the protein stability index was 3.67 ± 0.34 (treatment: DMSO) and 3.65 ± 0.32 (treatment: MLN4924 1 uM, 8 h).
Sequence TSSSDDDEEVSGSSKTITAEIPDG [C18orf25] yielded a protein stability index (treatment: DMSO) of 5.59 ± 0.19 and a protein stability index (treatment: MLN4924 1 uM, 8 h) of 5.49 ± 0.23.
In the same order, the values of QAPPVPGPPPGAPHTPQTPGQGGP [NR2F2] are 5.22 ± 0.56 and 5.05 ± 0.38.
On to VAITVEVKQEEDIKPPPPLVLNSQ [RAD54B], for which the protein stability index by setting is: (treatment: DMSO) 3 ± 0.26; (treatment: MLN4924 1 uM, 8 h) 2.98 ± 0.24.
For the sequence PSQDERMRSPQNLHSQEDDDSSSE [NOL4L], the protein stability index runs as follows: (treatment: DMSO) 5.62 ± 0.14; (treatment: MLN4924 1 uM, 8 h) 5.56 ± 0.21.
The matching figures for DLRGVCVSGKCEPIGCDGVLFSTH [ADAMTSL2]: 2.4 ± 0.091 and 2.75 ± 0.59.
Turning to LLEGQDAKMAGIGIREASSGGGGS [KRT15], the protein stability index runs as follows: (treatment: DMSO) 5.09 ± 0.14; (treatment: MLN4924 1 uM, 8 h) 4.87 ± 0.2.
In the case of EEGIVSPSDLDLVMSEGLGMRYAF [CRYL1], the protein stability index is, setting by setting: (treatment: DMSO) 2.27 ± 0.42; (treatment: MLN4924 1 uM, 8 h) 3.02 ± 0.31.
For TPHVYWAQRHRELYLRVELSDVQN [HACD3], the protein stability index is, setting by setting: (treatment: DMSO) 2.28 ± 0.14; (treatment: MLN4924 1 uM, 8 h) 2.17 ± 0.24.
The matching figures for ELDPEVEGTKPSATEMIWAVLAAF [GOLPH3L]: 2.21 ± 0.36 and 2.37 ± 0.28.
The matching figures for LRVLPNLPCVVQEGAIVMARGRHV [PYCR3]: 2.63 ± 0.37 and 2.73 ± 0.22.
Sequence SLLTNWPSVPPTIKEEENSEEELA [MYBL2] had a protein stability index (treatment: DMSO) of 5.41 ± 0.26 and a protein stability index (treatment: MLN4924 1 uM, 8 h) of 5.28 ± 0.28.
Consider SFQMSEGSEAAVIPLDLGCTQVTQ [FAM189A2], for which the protein stability index came to 4.56 ± 0.17 (treatment: DMSO) and 4.43 ± 0.31 (treatment: MLN4924 1 uM, 8 h).
In the same order, the values of KALNTFIDDLFAFVIKMPVMYRIG [CLPTM1] are 3.02 ± 0.53 and 2.82 ± 0.5.
In the same order, the values of YQEIFQQLQRSWVKMDQKSKHLKE [TRIM43] are 2.41 ± 0.32 and 2.6 ± 0.32.
In the same order, the values of NSIKNEKLEWAIDEDELRKSLSEL [PSD2] are 4.81 ± 0.15 and 4.72 ± 0.079.
LLAPGEQSLPCTERKPAATARLSR [KISS1]: the protein stability index reads like this: (treatment: DMSO) 4.46 ± 0.37; (treatment: MLN4924 1 uM, 8 h) 4.72 ± 0.18.
The matching figures for RNLSYTCRANRNCPIDQHHRNQCQ [NR2F2]: 3.32 ± 0.1 and 3.36 ± 0.24.
In the same order, the values of PLDVVKVRLQSQRPSMASELMPSS [SLC25A39] are 3.65 ± 0.34 and 3.59 ± 0.36.
The matching figures for DAIGEGKVTLRIRNVRFSDEGGFT [MOG]: 2.88 ± 0.35 and 2.84 ± 0.44.
Turning to YPTTLGKDRECQSQSLALKEQNNL [ZNF8], the protein stability index was 4.39 ± 0.16 (treatment: DMSO) and 4.52 ± 0.19 (treatment: MLN4924 1 uM, 8 h).
The matching figures for MTRNDVLTGLQLKLGPALKIYEYH [SAMD13]: 2.24 ± 0.42 and 2.22 ± 0.3.
The matching figures for IHSPAHPEIEKADDHLQQPLQNQK [ZNF649]: 5.39 ± 0.16 and 5.35 ± 0.37.
In the same order, the values of CFYRGYTSGVAAVQDWYHFHYVDI [SCNN1D] are 3.06 ± 0.86 and 2.92 ± 0.75.
Take LPACEFEMGGSEGIVESIQIMKEG [NETO1]: the protein stability index runs as follows: (treatment: DMSO) 4.92 ± 0.26; (treatment: MLN4924 1 uM, 8 h) 4.74 ± 0.3.

Values taken from the supplement of paper PMC10567573.
